From publication PMC10314698 (2023)

B1: soluble BCMA (B-cell maturation antigen) (receptor)
chain: MLQMAGQCSQNEYFDSLLHACIPCQLRCSSNTPPLTCQRYCNASVTNSVKGTNA
B2: APRIL (a proliferating ligand), IgG2a Fc conjugated binder (Fc fusion)
chain: SVLHLVPINATSKDDSDVTEVMWQPALRRGRGLQAQGYGVRIQDAGVYLLYSQVLFQDVTFTMGQVVSREGQGRQETLFRCIRSMPSHPDRAYNSCYSAGVFHLHQGDILSVIIPRARAKLNLSPHGTFLGFVKL

What was measured:
Test in all cases: SPR
bb2121 (C11D5.3) = biological target: bb2121 (C11D5.3)
[1] = biological target: B1
[2] = biological target: B1

## B1
bb2121 (C11D5.3)
  Kd: 0.328 nM
  koff: 0.00155 s⁻¹

## B2
[1]
  Kd: 3.7 nM
[2]
  koff: 0.00393 s⁻¹
